In one data set the target is T1, Vasa 463–661 (Drosophila, UniProt P09052 463-661).
T1 construct: Vasa, Drosophila, C-terminal RecA-like domain with the C-terminal extension, residues 463-661; Details are in the Supplemental Material; also called Vasa-CTD; source: E. coli (Rosetta 2), purified
T1 sequence (looked up): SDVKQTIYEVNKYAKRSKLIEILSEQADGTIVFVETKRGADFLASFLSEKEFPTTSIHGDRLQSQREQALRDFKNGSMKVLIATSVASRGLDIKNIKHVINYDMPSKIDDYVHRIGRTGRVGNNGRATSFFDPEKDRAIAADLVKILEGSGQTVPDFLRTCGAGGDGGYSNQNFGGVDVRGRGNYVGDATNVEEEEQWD
The experiment in a line: ITC; Vasa 463–661 titrated to the Oskar LOTUS domain (144–240); 25°C; VP-ITC; 20 mM Tris pH 7.5, 150 mM sodium chloride; curve fitted with the LOTUS monomer concentration. Conditions: both partners purified. (ITC needs no label: the signal is the heat of the interaction.)

The target of the next data set is T2, His-Vasa 200–661 (Drosophila, UniProt P09052 200-661).
T2 construct: Vasa, Drosophila DEAD-box RNA helicase, helicase core with the C-terminal extension, residues 200-661; Construct details are in the Supplemental Material; also called His-tagged Vasa 200–661; wild-type Vasa helicase core; source: E. coli (Rosetta 2), purified
T2 sequence (looked up): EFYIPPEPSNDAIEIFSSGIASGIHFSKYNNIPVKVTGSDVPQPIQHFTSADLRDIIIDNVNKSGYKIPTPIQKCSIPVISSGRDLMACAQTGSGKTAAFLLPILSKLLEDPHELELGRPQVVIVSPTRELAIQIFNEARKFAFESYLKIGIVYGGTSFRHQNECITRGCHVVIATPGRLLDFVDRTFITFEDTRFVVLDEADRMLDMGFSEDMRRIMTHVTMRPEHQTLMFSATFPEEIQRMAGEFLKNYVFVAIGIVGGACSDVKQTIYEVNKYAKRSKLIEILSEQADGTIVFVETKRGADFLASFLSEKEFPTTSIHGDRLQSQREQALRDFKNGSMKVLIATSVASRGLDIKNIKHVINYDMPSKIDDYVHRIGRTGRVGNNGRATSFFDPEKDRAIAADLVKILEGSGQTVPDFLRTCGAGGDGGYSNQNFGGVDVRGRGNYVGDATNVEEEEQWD
The data set can be described thus: pull-down; GST pull-down with purified recombinant proteins; GST or GST fusion as bait (8.75-10 µM in the legends), Vasa as prey (17.5-20 µM in the legends); samples on an SDS gel stained with Coomassie brilliant blue. As to conditions: both partners purified.

For a further data set, the target named is T3, Vasa 200–661 (Drosophila, UniProt P09052 200-661).
T3 construct: Vasa, Drosophila DEAD-box RNA helicase, helicase core with the C-terminal extension, residues 200-661; It may be the same preparation as His-Vasa 200–661; Construct details are in the Supplemental Material; also called Vasa helicase core; source: E. coli (Rosetta 2), purified
T3 sequence (looked up): T2 sequence (looked up)
The description is as above. As to conditions: both partners purified.

In another data set the target is T4, Vasa 463–623 (Drosophila, UniProt P09052 463-623).
T4 construct: Vasa, Drosophila, C-terminal RecA-like domain without the C-terminal extension, residues 463-623; also called Vasa-CTD lacking the C-terminal extension; Vasa C-terminal RecA-like domain; source: E. coli (Rosetta 2), purified
T4 sequence (looked up): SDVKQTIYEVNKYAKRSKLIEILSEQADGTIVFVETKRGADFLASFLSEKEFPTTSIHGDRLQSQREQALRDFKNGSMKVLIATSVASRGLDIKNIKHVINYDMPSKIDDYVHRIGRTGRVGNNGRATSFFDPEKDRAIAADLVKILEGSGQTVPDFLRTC
The data set can be described thus: crystal structure; Oskar 139–240 and Vasa 463–623 mixed in a 2:1 molar ratio; hanging drop vapor diffusion at 18°C; 1.4 Å; molecular replacement. Conditions: both partners purified.

Data set [1] deals with the molecule itself. Described as above.

B1: Oskar LOTUS domain (amino acids 144–240) (domain or fragment, Drosophila, UniProt P25158 144-240, looked up)
chain: SNYISVREEYPDIDSEVRAILLSHAQNGITISSIKSEYRKLTGNPFPLHDNVTDFLLTIPNVTAECSESGKRIFNLKASLKNGHLLDMVLNQKERTS
notes: Oskar, Drosophila, LOTUS domain, residues 144-240; residue numbers are those of the long isoform; The legend notes that the LOTUS domain of Oskar forms dimers (Jeske et al. 2015); The ITC curve was fitted with the monomer concentration; Details are in the Supplemental Material; also called Osk 144–240; Oskar 144–240 (LOTUS); source: E. coli (Rosetta 2), purified
By Kd is commonly meant the equilibrium constant for the complex coming apart. High values mean weaker binding, low ones tighter binding. Turning to B1, the Kd with Vasa 463–661 was ~10 µM.

B2: GST-Oskar LOTUS (amino acids 139–240) (domain or fragment, Drosophila, UniProt P25158 139-240, looked up)
chain: MTIIESNYISVREEYPDIDSEVRAILLSHAQNGITISSIKSEYRKLTGNPFPLHDNVTDFLLTIPNVTAECSESGKRIFNLKASLKNGHLLDMVLNQKERTS
notes: Oskar, Drosophila, LOTUS (eLOTUS) domain with its C-terminal extension, residues 139-240; residue numbers are those of the long isoform; Construct details are in the Supplemental Material; also called Oskar GST-LOTUS; GST fusion of the LOTUS domain of Oskar; source: E. coli (Rosetta 2), purified
Regarding B2, the binding result with His-Vasa 200–661 and with Vasa 200–661 was “binds” in each case.

B3: Oskar 139–240 (LOTUS domain) (domain or fragment, Drosophila, UniProt P25158 139-240, looked up)
chain: B2 chain
notes: Oskar, Drosophila, LOTUS (eLOTUS) domain with its C-terminal extension, residues 139-240; residue numbers are those of the long isoform; This is a dimer in the crystal; No tag is stated for the crystallised protein; also called LOTUS domain of Oskar (amino acids 139–240); eLOTUS; source: E. coli (Rosetta 2), purified
Usually stoichiometry N stands for the number of molecules, sites or subunits per partner or assembly. Consider B3, for which, in the data set with Vasa 463–623, the binding result was “binds”. In addition, the “stoichiometry N” value in data set [1] amounted to 2.

These data come from article PMC5458760, “The LOTUS domain is a conserved DEAD-box RNA helicase regulator essential for the recruitment of Vasa to the germ plasm and nuage” (Genes & Development, 2017).
